Measured values: patent US20230012273A1 (Boehringer Ingelheim, published 2023)
Substitutions are numbered along the chain they refer to. Each block holds one binder with its values, some of them ahead of it.

Experiments:
[1] = biological target: T1, cynomolgus SIRPβ1v3 extracellular domain + His-tag (XP_005568593) (cynomolgus monkey); experiment: SPR, Ab captured, ECD-His analyte
T1 construct: also called Cyno SIRPβ1v3; cynoSIRPβ1v3
T1 chain: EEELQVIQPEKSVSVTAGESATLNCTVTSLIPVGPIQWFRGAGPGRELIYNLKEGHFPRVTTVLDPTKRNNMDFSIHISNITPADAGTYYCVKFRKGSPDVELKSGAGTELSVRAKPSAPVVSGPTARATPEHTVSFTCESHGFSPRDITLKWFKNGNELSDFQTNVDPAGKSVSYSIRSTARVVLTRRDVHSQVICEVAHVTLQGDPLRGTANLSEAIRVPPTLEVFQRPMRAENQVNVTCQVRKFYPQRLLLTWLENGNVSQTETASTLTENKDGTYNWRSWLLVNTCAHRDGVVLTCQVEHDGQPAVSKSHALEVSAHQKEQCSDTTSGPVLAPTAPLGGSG
Summary of the method: (§1)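 SPR; Ab capture surface, ethanolamine-deactivated (1M, 420 s, 10 μl/min). Analyte: SIRP ECD+His, 2-fold dilution series in 1×HBS-EP+. Inject 300 s @ 30 μl/min; dissoc. 600 s.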

[2] = biological target: T2, cynomolgus SIRPγ extracellular domain + His-tag (XP_005568591) (cynomolgus monkey, UniProt Q9P1W8 29-359 (human entry)); experiment: SPR, Ab captured, ECD-His analyte
T2 construct: also called Cyno SIRPγ; cynoSIRPγ
T2 chain: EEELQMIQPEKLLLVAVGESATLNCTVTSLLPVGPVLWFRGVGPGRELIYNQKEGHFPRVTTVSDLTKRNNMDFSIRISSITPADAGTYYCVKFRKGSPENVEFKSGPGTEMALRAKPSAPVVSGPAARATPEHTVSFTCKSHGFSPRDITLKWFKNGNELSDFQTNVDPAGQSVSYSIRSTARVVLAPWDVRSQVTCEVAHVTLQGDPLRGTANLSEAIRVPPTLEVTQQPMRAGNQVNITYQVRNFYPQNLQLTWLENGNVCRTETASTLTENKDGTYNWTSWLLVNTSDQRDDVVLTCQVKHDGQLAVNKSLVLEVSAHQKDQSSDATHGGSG
Summary of the method: as §1

[3] = biological target: T3, cynomolgus SIRPα extracellular domain + His-tag (XP_015313155) (cynomolgus monkey); experiment: SPR, Ab captured, ECD-His analyte
T3 construct: also called CySIRPα XP_015313155; cynoSIRPα
T3 chain: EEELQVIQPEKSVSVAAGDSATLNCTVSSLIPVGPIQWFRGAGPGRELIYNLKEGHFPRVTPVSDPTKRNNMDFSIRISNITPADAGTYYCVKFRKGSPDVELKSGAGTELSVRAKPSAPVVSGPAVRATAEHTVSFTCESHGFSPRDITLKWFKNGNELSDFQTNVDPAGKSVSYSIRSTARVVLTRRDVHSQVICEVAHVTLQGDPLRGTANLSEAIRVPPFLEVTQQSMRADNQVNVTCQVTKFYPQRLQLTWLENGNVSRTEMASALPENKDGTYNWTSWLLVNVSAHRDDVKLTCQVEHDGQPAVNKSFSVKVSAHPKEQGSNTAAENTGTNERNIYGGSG
Summary of the method: as §1

[4] = biological target: T4, cynomolgus SIRPα extracellular domain + His-tag (EGM_02252) (cynomolgus monkey); experiment: SPR, Ab captured, ECD-His analyte
T4 construct: also called CySIRPα EGM_02252; cynoSIRPα
T4 chain: T3 chain with D19E, V27A, S28T, A42V, N51H, L52Q, V227F, T245M
Summary of the method: as §1

[5] = biological target: T5, cynomolgus SIRPα extracellular domain + His-tag (NP_001271679) (cynomolgus monkey); experiment: SPR, Ab captured, ECD-His analyte
T5 construct: also called CySIRPα NP_001271679; cynoSIRPα
T5 chain: T3 chain with P62A, F163V, V185L
Summary of the method: as §1

[6] = biological target: T6, full-length human SIRPβL (NP_001129316.1) on cells (human, UniProt Q5TFQ8 30-398); experiment: flow cytometry, U937 SIRPα KO cells
T6 construct: on U937 SIRPα KO cells and Expi-CHO cells; also called βL WT; SIRPβ1v3
T6 sequence (Q5TFQ8 30-398): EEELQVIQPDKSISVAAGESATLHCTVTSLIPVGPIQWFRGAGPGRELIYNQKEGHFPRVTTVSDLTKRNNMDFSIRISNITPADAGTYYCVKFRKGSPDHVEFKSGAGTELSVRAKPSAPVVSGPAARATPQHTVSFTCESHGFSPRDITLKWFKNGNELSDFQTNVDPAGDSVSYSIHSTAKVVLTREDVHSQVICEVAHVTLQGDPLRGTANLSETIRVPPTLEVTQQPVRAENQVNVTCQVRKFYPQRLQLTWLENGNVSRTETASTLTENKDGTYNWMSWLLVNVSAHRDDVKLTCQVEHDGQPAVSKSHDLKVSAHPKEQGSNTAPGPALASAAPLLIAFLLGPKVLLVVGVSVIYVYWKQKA
Summary of the method: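 SIRPα-knockout U937 cells expressing SIRPβ1 or SIRPβL were blocked with donkey IgG, then incubated on ice 60 minutes with increasing antibody concentrations. Bound antibody detected with AF647 anti-human IgG F(ab′)₂; median fluorescence intensity taken as binding.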

- Kd [1]: 246 nM
- binding result [2]: no binding (tested: 1000 nM)
- Kd [3]: 165 nM
- Kd [4]: 258 nM
- Kd [5]: 336 nM
- binding result [6]: no binding
B1: Antibody A (antibody, human IgG1, kappa, L234A L235A)
heavy: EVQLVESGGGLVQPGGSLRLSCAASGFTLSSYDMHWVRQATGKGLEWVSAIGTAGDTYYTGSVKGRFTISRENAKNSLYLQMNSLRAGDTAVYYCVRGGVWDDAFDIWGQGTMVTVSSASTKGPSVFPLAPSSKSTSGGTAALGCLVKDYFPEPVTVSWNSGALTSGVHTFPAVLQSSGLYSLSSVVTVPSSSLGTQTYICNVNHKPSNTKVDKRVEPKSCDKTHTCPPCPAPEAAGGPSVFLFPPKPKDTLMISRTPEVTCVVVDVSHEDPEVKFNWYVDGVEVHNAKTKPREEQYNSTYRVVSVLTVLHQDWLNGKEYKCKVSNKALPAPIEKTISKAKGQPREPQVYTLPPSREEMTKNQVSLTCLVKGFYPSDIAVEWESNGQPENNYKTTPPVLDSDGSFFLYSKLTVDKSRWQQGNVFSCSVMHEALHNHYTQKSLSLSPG
light: DIQMTQSPSSLSASVGDRVTITCRASQDINNYLAWFQQKPGKAPKSLIYTASSLHSGVPSKFSGSGSGTDFTLTISSLQPEDFATYYCQQYVSYPYTFGQGTKLEIKRTVAAPSVFIFPPSDEQLKSGTASVVCLLNNFYPREAKVQWKVDNALQSGNSQESVTEQDSKDSTYSLSSTLTLSKADYEKHKVYACEVTHQGLSSPVTKSFNRGEC

- Kd [1]: 271 nM
- binding result [2]: no binding (tested: 1000 nM)
- Kd [3]: 180 nM
- Kd [4]: 249 nM
- Kd [5]: 378 nM
- binding result [6]: no binding
B2: Antibody A10 (antibody, human IgG1, kappa, L234A L235A)
heavy: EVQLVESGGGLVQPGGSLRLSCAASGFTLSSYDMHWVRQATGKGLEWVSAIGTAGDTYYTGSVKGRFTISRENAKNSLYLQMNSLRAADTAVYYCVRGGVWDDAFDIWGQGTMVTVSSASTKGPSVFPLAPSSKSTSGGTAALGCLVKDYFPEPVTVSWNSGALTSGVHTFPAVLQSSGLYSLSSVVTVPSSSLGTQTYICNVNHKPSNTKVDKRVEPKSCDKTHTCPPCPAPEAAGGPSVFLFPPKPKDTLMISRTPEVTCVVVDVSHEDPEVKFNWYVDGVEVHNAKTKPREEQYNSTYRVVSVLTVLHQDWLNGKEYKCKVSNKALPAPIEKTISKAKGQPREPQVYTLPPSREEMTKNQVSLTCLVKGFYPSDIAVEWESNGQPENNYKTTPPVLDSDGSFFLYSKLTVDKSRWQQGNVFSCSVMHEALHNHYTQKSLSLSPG
light: B1 light
